Drawing on US20220332804A1 (CSL INNOVATION, published 2022), this text covers Kd for 1 molecule.

Numbering of substitutions follows the chain as printed.

What all share (experiment): SPR, antibody captured, C2 as analyte;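 also: biacore at 37 °C, anti-C2 mAbs held by immobilised goat anti-human IgG, C2 alanine or serine mutants injected, double-referenced sensorgrams fitted to a 1:1 kinetic or steady-state model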
For one experiment, the target named is T1, human C2 R493A (human, UniProt P06681 21-752).
T1 sequence: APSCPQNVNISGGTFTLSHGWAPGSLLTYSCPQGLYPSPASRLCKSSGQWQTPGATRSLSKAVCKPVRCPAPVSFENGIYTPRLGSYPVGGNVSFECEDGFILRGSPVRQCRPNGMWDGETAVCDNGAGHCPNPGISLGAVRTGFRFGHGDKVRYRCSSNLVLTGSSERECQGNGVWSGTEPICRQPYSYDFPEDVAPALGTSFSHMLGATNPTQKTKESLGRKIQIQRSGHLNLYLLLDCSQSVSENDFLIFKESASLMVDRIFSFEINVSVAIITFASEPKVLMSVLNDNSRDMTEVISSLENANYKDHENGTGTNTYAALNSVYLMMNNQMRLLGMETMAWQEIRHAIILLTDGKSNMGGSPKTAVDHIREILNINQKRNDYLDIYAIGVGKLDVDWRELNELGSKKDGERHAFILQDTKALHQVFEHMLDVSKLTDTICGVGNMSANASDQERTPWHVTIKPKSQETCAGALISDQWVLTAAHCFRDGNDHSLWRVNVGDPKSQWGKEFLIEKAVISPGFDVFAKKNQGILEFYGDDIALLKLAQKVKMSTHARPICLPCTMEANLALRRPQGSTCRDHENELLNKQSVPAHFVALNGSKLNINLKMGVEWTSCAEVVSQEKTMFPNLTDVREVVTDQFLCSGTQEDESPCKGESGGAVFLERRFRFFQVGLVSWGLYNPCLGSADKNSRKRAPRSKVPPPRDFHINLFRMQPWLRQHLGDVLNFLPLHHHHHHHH

Another experiment has as its target T2, human C2 L279A (human, UniProt P06681 21-752).
T2 sequence: T1 sequence with L259A, A473R

For another experiment, the target named is T3, human C2 G432A (human, UniProt P06681 21-752).
T3 sequence: T1 sequence with G412A, A473R

The next experiment addresses T4, human C2 D404A (human, UniProt P06681 21-752).
T4 sequence: T1 sequence with D384A, A473R

B1: RF16-242 (antibody, human IgG4 S228P, lambda, V domains shown)
VH: EVQLLQSGAEVKKPGESLKISCKGSGYSFTSYWIGWVRQMPGKGLEWMGIIYPGDSDTRYSPSFQGQVTISADKSISTAYLQWSSLKASDTAMYYCARRGHYGDYFDYWGQGTLVTVSS
VL: SYELTQPPSVSVSPGQTARITCSGDALPKKYAYWYHQKSGQAPVLVIYEDRRRPSEIPERFSGSSSGTMATLTITGAQVEDEGVYFCYSRDRAGNQRVFGGGTQLTVLG
notes: pH-dependent anti-C2 antibody from a phage display library
B1: the Kd with human C2 R493A worked out at 7.2 nM; in the experiment with human C2 L279A, 49.2 nM; in the experiment with human C2 G432A, 8.8 nM; in the experiment with human C2 D404A, 16.4 nM.

What is called Kd is the free concentration of one partner at which half of the binding sites on the other are occupied at equilibrium, for simple one-to-one binding. Low readings indicate a tighter complex, high ones a looser complex.
